Source: the DeepSol protein solubility set

Assay: soluble on expression in E. coli; label from the status in PepcDB or PDB records

Soluble on expression in E. coli, not soluble:
MGSDKIHHHHHHMARKKNTSDQSRSQAANTPIAGTYEGEYSVIELEADSYTTDGWLISINGVPSSHIVLGQPQALEFEYMRWIATGARAFIDAHQDASKLRITHLGGGACTMARYFADVYPQSRNTVVELDAELARLSREWFDIPRAPRVKIRVDDARMVAESFTPASRDVIIRDVFAGAITPQNFTTVEFFEHCHRGLAPGGLYVANCGDHSDLRGAKSELAGMMEVFEHVAVIADPPMLKGRRYGNIILMGSDTEFFSSNSTEASAITRELLGGGVPAQYKDESWVRKFASGAQARHDGVSTLQMPSDTPQHPAETPEHSNTQP
MGSDKIHHHHHHMASLQIAHNTRIVKEAARIAGFDYCGISAARFLEEEAPRLESWLNRNQHGTMSWMENYFDKRLDPRKLVDGAKSVVSVLLNYTPAPEDEILSTGETKISRYAYGKDYHYVLKDKFKQMLQHITEQIGEVNGRAFVDSAPVMDKAWAKQGGLGWVGKHSNIITKDSGSYFFIGELIIDLELDADGPIKDYCGTCTRCIDACPTNAITEPYQVDGSKCISYLTIELKEQIPSEFKEQMQGWAFGCDICQEVCPWNRFAQPINKNEFSPSEELKKYFEMPLKEITKEVFNILFKDSTIKRTKIEGLSRNLTFIKKET
MGSDKIHHHHHHMAVGTTKMAQMLDPEVLADMIDAEVGKAIRFAPLAEVDTTLEGQPGTTLTVPKWDYIGDAEDVAEGEAIPMTQLGFKKTTMTIKKAGKGVEITDEAILSGYGDPVGQAAKQIVEAIDHKVDADVLDALSKSTQTVEATATVDGVSKALDIFNDEDDAETVIVMNPADASTLRLDAAKEWLGATEVGANRVVSGVYGEVLGVQIVRSRKCPKGTAYMVRKGALRIMLKRNTMVETDRDITKAINQIVANKHYGVYLYKAEKAVKITLKDAAKK
MGSDKIHHHHHHMCPMQNYPYVITVSSEKGGVGKTTLATNLAIYLKALDENLPVTIFSFDNHFTVDRMFEIRGQRLTGSVADLLMESPPRDLIHTGQYGVGYIPSSASLNDLKGSIRGPMVLARLLAASRIPGVLIIDTRPDLDMLTQNALFAADRAIIPVKDMPSLENCRNIFALFEQRGLDRKSLSLIPCLVDERIKFDGPFNDQKTLLKAYAINRGYRCLDVYISKSPKVESLNTNPDGKIYPILTHAKWTEVHGQFAQLAQILINEYNATTEPRSLLFHKWLQTEESRKKEEFFARLSGIKSQCLLCGKPVSDDGDGRHSFYFEVSDGSAAGFFEEECFLTMLMTNIYNMDVSMVDDAPTVHLMRDSSRESAFVFRPASNGGAVEFHRFSLDGTLLIKKNYPLREYEGGLLRRERSRLYTLMTEALGTAGAGSSDRFILVHPVTRDNPQGILRDESYRGLTKLKQHIAAQIASS
MGSDKIHHHHHHMCRLLAYLGSPVSLEHLLYKPEHSLIVQSYKPREMTSGAVNADGFGVGWYHSQKDIEPFTYKNTLPIWNDINLLSLSRYIESKCVLAYVRSATSEQAVDFANCQPFKHQQQLFIHDGRIENFHKTLHRKIRSTLTQDFYEKINGNTDSEHIFALLLSQSQINKHRPPEYALRTTLLTLLEMAKRYQVEASINVIFSDGHRLIASRFATTSLAPSLYWVRDDPTFSNSVIIASEPLFIGNWNAFPENSIITVGADCEIQIEQI
MGSDKIHHHHHHMCRLLAYLGSPVSLEYLLYKPEHSLIVQSYQPREMTSGVVNADGFGVGWYHSQKDTEPFTYKNTLPIWNDINLPSLSRYVESKCILAYVRSATAGQALDFANCQPFHYKQSLFIHNGYIENFRKTLHRKLRSTLTPDFYEHINGSTDSEHIFALLLSQIQSNKHRSVESVLRNTLLMLWEMAKRHQVNASANVVFSDGHRLIASRFASSSSPPSLYWLKDDLTFPNSVIIASEPLFAGNWTACPENSIISVGEDCDIKIESI
MGSDKIHHHHHHMDAIARELRTSRSTVSRLLSAARETGLVQIQIRNPLDTGPELENMIRTQYRVDVHVVPVLDTLNEAETLDRVAMQAARTIGPLVDSNAIIGVAWGSTLSAVSRHLTRKITHDSVIVQLNGAGNMQTTGITYASDIMRRFGSAYGARVEQFPVPAFFDHAATKTAMWNERSVQRILELQSRMSIAIFGVGSVDADYPSHVYAGGYLDEDDLNILANSDVVGDVATVFFRGDGSSDGITLNERSTGPALAQLRQVRRRICVVSGASKINGLRGALAAGLATDLILDEATARRLVSFDGLS
MGSDKIHHHHHHMDAMKYNDLRDFLTLLEQQGELKRITLPVDPHLEITEIADRTLRAGGPALLFENPKGYSMPVLCNLFGTPKRVAMGMGQEDVSALREVGKLLAFLKEPEPPKGFRDLFDKLPQFKQVLNMPTKRLRGAPCQQKIVSGDDVDLNRIPIMTCWPEDAAPLITWGLTVTRGPHKERQNLGIYRQQLIGKNKLIMRWLSHRGGALDYQEWCAAHPGERFPVSVALGADPATILGAVTPVPDTLSEYAFAGLLRGTKTEVVKCISNDLEVPASAEIVLEGYIEQGETAPEGPYGDHTGYYNEVDSFPVFTVTHITQREDAIYHSTYTGRPPDEPAVLGVALNEVFVPILQKQFPEIVDFYLPPEGCSYRLAVVTIKKQYAGHAKRVMMGVWSFLRQFMYTKFVIVCDDDVNARDWNDVIWAITTRMDPARDTVLVENTPIDYLDFASPVSGLGSKMGLDATNKWPGETQREWGRPIKKDPDVVAHIDAIWDELAIFNNGKSA
MGSDKIHHHHHHMDANSLKAFLTIVDQGSFSEAAETLHLTQPAISKRLAALETQLGTRLIDRSNREIRLTEAGTRLLPHARKILDEIHNARMALTTSADSIGGELHAIASHHIGLHHLPNWLRRYRREYPQVDLHLQFMESDAAYDQMNKRNAELAFVTLSDSMNPEFSILAQWPDPMAFVVGKEHPLATLASPSLSDLAPHPALLPDTSTATYRVVSRLFLEANLTLRPLMPTNYLETIKMMVSVGLGWSILPVSMLDNSLKVLEVPHPVTRVLGAVALSRRQLGSAAQALLQIVEQEETRPESGQ
MGSDKIHHHHHHMDAPALPARWKVSAPELIAETFSSRIWKVVRDDGSPAVVKALKPFDDVADELRGEHFLAWRRGEGAVRLLGRDGHSMLLEYAGETLLTQVLDEQGDNAATAIAAELMTKLFSPSQHPYPPELQPLTERYTSLFRKAATDRGAGHASIYVEAAAIAERLLDNPHDIRPLHGDLHHDNILHGPRGWLVIDPKGVLGNPGFDAANMFYNPLDRDDLCLDPERIAHMAEVFAKTLGESPAAILDHAIAYGCLSAAWHHEDDNAVEENRELSIAKAIRAMRANF
MGSDKIHHHHHHMDDAMVSAVTCGAVMAFDRNIWIEKFLENSVPSFPCPHCSRGVLGFDGKSFWKEEPKHSKDAHAHDDWDPTWIEERFVMFLRCGVAKCGEVVAVSGNIEVEEVVDEDEGYDFASVLYPTSLVPAPPIIQMTDGTPDEVAGELSLAFQLFWADLGASATKIRTSVERLMDHFKVARYSRTKGKLKPIPLYNRIEAFIKANGKVVHQDHLHALRVVGNLGTHKNSLTRSDILEAFQVYEHALDELIGKKSASIAKLARKLKKK
MGSDKIHHHHHHMDDRARALLKALIERYIADGQPVGSRTLSKVFDLSPATIRNVMADLEELGLIHSPHTSAGRVPTPRGYRMFVDSLLAVRAYQFEPAHIGELLPVSEPSRAVNAAAALLSNLTQFAGVVLTPKRTQIFRQIEFIRLSDKRVLLIIVTPEGDVQNRILSAQRDYTEAELLEAGNFFNVHFSGKSFDAVRRTLSTELAQLRDDISRLMQAAVEAGAEAADDGEAVVISGERKLLDVTDIASDMDRLRKMFSLFEKKTDLLQLLDVSSRAQGVQIYIGGDSQLVPMEEVSVITAPYGVDGKVIGTLGVIGPTRMAYERVIPIVDITARLLSNALSHNQ
MGSDKIHHHHHHMDGINTLRYSDLFLAMYFDGGKSCLHRNHSHVLVYVYSGEMVIDEKGQITRLHKGECAFIRKDFSVQMTKQAWNGEQFKAIFLMFTMKFLRDFYSKLDRNTLPKDAKRDQVSLYKLPSNRPDIVSLFESMTPYFNSKIQPTDELLQLKMVEGVYVLLNTDKNLYASIFDFTDPWKIDILEFMERNYMNDISMEEIANYTGRSLSTFKRDFKKCSALSPREWLIRRRLEAAHGLIRKGGRKVSEICFEVGFKNLSHFSKIYKIAYGVPPTEDI
MGSDKIHHHHHHMDIKQIRYFIAIVENHFNLSQAAELLYVSQPTLSMMINDFEKRENVKLFKRKRGRIIGLTYLGDNYYKDAQKVLSLYDDMFLKLHDHSKGLKGSINIGIPPLILSVVFSEVMPKLILENPGIQFNVKEIGAYQLKNELLVGNVDVAVLLSPTGIADNLVETYEIQRSELSVCLSPRHRLASKKVIQWEDLTDEQLALFDPSFMVHHLVLEACERHQVRPNIILTSSSWDFMLNSTKINHNVLTICPKPITELYQLKDIKCIPMERPISWRVVLTRLRKKSYSEIEAYIMDDLLQSFFK
MGSDKIHHHHHHMDINADFSERVMVQSADLDWVASPMPGVDRRMLDRIGGEVARATSIVRYAPGSNFSAHTHTGGEEFVVLDGVFQDEHGDYPAGTYVRNPPTTSHTPGSDEGCTIFVKLWQFDMDDRTQFRRDMAAGGDRSVLHEDAFEIVTYHRLAPGAALEDPADGGAELLVLAGSLTEGGDTLITGGWLRLPESSTMHAVAGSEGATVWMKTGHLPHAKPPAVGRTR
MGSDKIHHHHHHMDITPFLNRTLDIPLYQQLYRYFKENMHRGRIQKGMKLPSKRLLANQLSISQTTVERAYEQLAAEGYIVSKPRSGWFADYHDSDFAYDRMPSTTPIQQEAEENKQWIDFHYGNVDSSYFPFSAWRKSMVNSLDQYGHELYRPGHVLGEFELRTLIAEYLYQSRGVHCGPEQVIIGAGNPILLQILCQVFEPNISIGYEDPGYPRARKIFEANRMNIVPIPVDDEGICIQKIKEQQPNLVYVTPSHQFTLGTIMTINRRIQLLKWAAENQSFIIEDDYDGEFRYTGQPVPSLQGLDQHNRVIYMGTFSKSLLPSLRISYMILPSPLLKKGHEITSLYKQTVSCHSQLTLAEFIKNGEWQKHINRMRKLYRKKRAIVLEAVQRELGEHVRIRGENSGLRILLDVYLPFGEKELIEKAKKHGVKIYPVSLSYQHHPPTKTVSLGFAGVSESDIREGIKKLKAAWKI
MGSDKIHHHHHHMDIYRHAQVMMNAAQAAHDLVDHLSIQPRGVVKVSVPVDIAQNLLPKILPAFLKKYPEIRLQLIVSNRRVDVINEGIDIALRVRSKLDDDPSLVLRQFALIEQSLFASQAYLNEFGNIKSPDELSDHRILSLSEEHLDQQFILHGPDNQLKKVKVSPTIMGTNIYMLAQLASQNCGIALLPDTAAEDFVKSGQLVQILPDWKAAHGIFHAVYPSRRGLLPAVRVFIDYLVEHLSEHP
MGSDKIHHHHHHMDKILNLDSVDLYNKLYGLETLNPLVSVIDLNKATSSVDLIRFNYGIYALYLKLEKACDIKYGRQTYDYQEGTIVCFAPGQTAETNPTTDKVQVNAHGILFHPDLLRGTSLGKNIKKYTFFSYEVNEALHLSEEERSIVMDCLKIIRMELEHGVDKHSKTLLVNHIELLLNYCMRFYERQFITRGKTNRDVLTRFENLLDEYFESTLAEQDGLPTVKYFADKLCLSSNYFGDMFKKETGKSPQEYIQEKVIELAKERISGTADTVSQIAYSLGFQYPQHSCRLFKKRVGYTPSEYRAQIGLSTNL
MGSDKIHHHHHHMDKLLYIAMSGAKQNMQALSINANNLANAKTTGFKADLAQARSMQAFGEGLPSRVFSMTERASQNFDSGSILHTGRSLDMAIEGEGFFAVQAEDGQEAYTRGGHFRLTETGALETNDGELVIGENGPITLPLPINNIQISRDGTIMVQPAGAPSSVQEEVGRIKLVNPDTRLVDKGNDGLFRAKNGGQLIADVNVNVLGGALESSNVNPINEMTDMIALQRQFEMQLKMMKTAEEIDSSASSLLRAF
